Reference: the supplement of paper PMC9112550, “Optimization of the antimicrobial peptide Bac7 by deep mutational scanning” (BMC Biology, 2022)

What follows are sequences tested on Escherichia coli TOP10 (assay: shrunken log2 fold change of peptide-encoding DNA abundance (4.5 h post-induction vs induction); higher = less antimicrobial activity (less host growth inhibition)). Conditions: time post-induction: 4.5 h; library: site-saturation at positions 5, 18, 19, 20.
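Note: peptides expressed intracellularly from a pBAD plasmid library in pooled LB shake-flask culture, induced with 0.3% L-arabinose, DNA abundance read by NGS, three biological replicates, DESeq2 with apeglm shrinkage.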

Sequence	shrunken log2 fold change
RRIRTRPPRLPRPRPRPAPQPRP	0.0544
RRIRHRPPRLPRPRPRPWPGPRP	-0.327
RRIRRRPPRLPRPRPRPPYNPRP	-0.019
RRIRKRPPRLPRPRPRPCDAPRP	0.0682
RRIRRRPPRLPRPRPRPRAGPRP	0.638
RRIRQRPPRLPRPRPRPIYQPRP	-0.647
RRIRFRPPRLPRPRPRPKCPPRP	-0.128
RRIRFRPPRLPRPRPRPIMHPRP	-0.212
RRIRQRPPRLPRPRPRPRYSPRP	-0.192
RRIRDRPPRLPRPRPRPIYSPRP	-0.15
RRIRHRPPRLPRPRPRPLVQPRP	-0.0987
RRIRHRPPRLPRPRPRPDEVPRP	-0.00134
RRIRKRPPRLPRPRPRPVIWPRP	0.153
RRIRTRPPRLPRPRPRPNEEPRP	-0.0204
RRIRCRPPRLPRPRPRPRYFPRP	-0.529
RRIRNRPPRLPRPRPRPFTIPRP	-0.28
RRIRDRPPRLPRPRPRPHFYPRP	-0.321
RRIRVRPPRLPRPRPRPQVNPRP	-0.795
RRIRRRPPRLPRPRPRPGIWPRP	0.455
RRIRCRPPRLPRPRPRPNIDPRP	-0.539
RRIRMRPPRLPRPRPRPWEEPRP	0.317
RRIRHRPPRLPRPRPRPMTPPRP	0.0337
RRIRDRPPRLPRPRPRPHWWPRP	0.272
RRIRQRPPRLPRPRPRPPVDPRP	-0.19
RRIRWRPPRLPRPRPRPKVRPRP	-0.00879

Sequence	shrunken log2 fold change
RRIRARPPRLPRPRPRPFKAPRP	0.0354
RRIRIRPPRLPRPRPRPTENPRP	0.0227
RRIRARPPRLPRPRPRPMTEPRP	0.356
RRIRERPPRLPRPRPRPFSRPRP	-0.0038
RRIRKRPPRLPRPRPRPKSTPRP	0.0348
RRIRWRPPRLPRPRPRPYCYPRP	-0.562
RRIRQRPPRLPRPRPRPQQEPRP	0.0811
RRIRHRPPRLPRPRPRPTDTPRP	-0.116
RRIRDRPPRLPRPRPRPGNVPRP	-0.0882
RRIRWRPPRLPRPRPRPEEYPRP	0.113
RRIRKRPPRLPRPRPRPCALPRP	0.0167
RRIRRRPPRLPRPRPRPDWFPRP	0.276
RRIRDRPPRLPRPRPRPDRSPRP	0.0975
RRIRKRPPRLPRPRPRPCYTPRP	-0.0178
RRIRERPPRLPRPRPRPLAMPRP	-0.246
RRIRTRPPRLPRPRPRPKQAPRP	0.0749
RRIRIRPPRLPRPRPRPTWHPRP	-0.242
RRIRMRPPRLPRPRPRPRLSPRP	0.494
RRIRERPPRLPRPRPRPMFQPRP	-0.952
RRIRCRPPRLPRPRPRPHNNPRP	-0.991
RRIRIRPPRLPRPRPRPPCRPRP	0.0264
RRIRHRPPRLPRPRPRPAFPPRP	0.46
RRIRARPPRLPRPRPRPYCIPRP	-0.151
RRIRHRPPRLPRPRPRPGDEPRP	-0.492
RRIRDRPPRLPRPRPRPGLWPRP	1.37

Sequence	shrunken log2 fold change
RRIRKRPPRLPRPRPRPQAMPRP	0.146
RRIRPRPPRLPRPRPRPVQNPRP	-0.234
RRIRARPPRLPRPRPRPYHGPRP	-1.67
RRIRMRPPRLPRPRPRPYDSPRP	0.00275
RRIRKRPPRLPRPRPRPYGTPRP	-0.272
RRIRARPPRLPRPRPRPWMNPRP	-0.121
RRIRKRPPRLPRPRPRPFHSPRP	0.00367
RRIRPRPPRLPRPRPRPQIYPRP	-0.858
RRIRWRPPRLPRPRPRPDDYPRP	0.0299
RRIRKRPPRLPRPRPRPNQIPRP	0.105
RRIRKRPPRLPRPRPRPPAKPRP	0.408
RRIRARPPRLPRPRPRPLPCPRP	0.13
RRIRTRPPRLPRPRPRPHMPPRP	-0.422
RRIRFRPPRLPRPRPRPLRNPRP	0.514
RRIRVRPPRLPRPRPRPECGPRP	0.691
RRIRNRPPRLPRPRPRPMYWPRP	-0.000123
RRIRQRPPRLPRPRPRPSSRPRP	-0.14
RRIRRRPPRLPRPRPRPSKSPRP	0.292
RRIRTRPPRLPRPRPRPGIMPRP	-0.452
RRIRCRPPRLPRPRPRPHTLPRP	-0.731
RRIRGRPPRLPRPRPRPQSRPRP	0.328
RRIRVRPPRLPRPRPRPVPNPRP	-0.175
RRIRPRPPRLPRPRPRPVWKPRP	0.218
RRIRPRPPRLPRPRPRPHALPRP	-0.376
RRIRKRPPRLPRPRPRPYCTPRP	-0.19

Sequence	shrunken log2 fold change
RRIRRRPPRLPRPRPRPHYHPRP	-0.35
RRIRRRPPRLPRPRPRPEGLPRP	2.59
RRIRWRPPRLPRPRPRPYFGPRP	-0.168
RRIRYRPPRLPRPRPRPDITPRP	-0.385
RRIRDRPPRLPRPRPRPLLYPRP	0.116
RRIRGRPPRLPRPRPRPMPGPRP	0.479
RRIRIRPPRLPRPRPRPVHNPRP	-0.357
RRIRPRPPRLPRPRPRPSHSPRP	-0.368
RRIRVRPPRLPRPRPRPKASPRP	0.0977
RRIRCRPPRLPRPRPRPSSVPRP	-0.548
RRIRTRPPRLPRPRPRPQAYPRP	-0.629
RRIRNRPPRLPRPRPRPWLTPRP	-0.0905
RRIRFRPPRLPRPRPRPARAPRP	1.31
RRIRLRPPRLPRPRPRPLSMPRP	-0.163
RRIRQRPPRLPRPRPRPVYFPRP	-0.446
RRIRKRPPRLPRPRPRPSDLPRP	0.154
RRIRPRPPRLPRPRPRPWQFPRP	0.00677
RRIRPRPPRLPRPRPRPAYTPRP	-0.116
RRIRARPPRLPRPRPRPDGKPRP	0.154
RRIRHRPPRLPRPRPRPNHVPRP	-0.0341
RRIRIRPPRLPRPRPRPRIRPRP	-0.204
RRIRARPPRLPRPRPRPWPHPRP	-0.0357
RRIRKRPPRLPRPRPRPFVDPRP	-0.0489
RRIRIRPPRLPRPRPRPASWPRP	0.0913
RRIRCRPPRLPRPRPRPSEKPRP	-0.188

Sequence	shrunken log2 fold change
RRIRMRPPRLPRPRPRPPIYPRP	-0.0765
RRIRQRPPRLPRPRPRPMQCPRP	-0.409
RRIRYRPPRLPRPRPRPQLDPRP	-0.555
RRIRMRPPRLPRPRPRPQLHPRP	0.546
RRIRKRPPRLPRPRPRPKKDPRP	0.337
RRIRQRPPRLPRPRPRPCAEPRP	-0.135
RRIRWRPPRLPRPRPRPWSEPRP	-0.206
RRIRGRPPRLPRPRPRPHMRPRP	0.997
RRIRARPPRLPRPRPRPMSFPRP	-0.0283
RRIRQRPPRLPRPRPRPQKVPRP	-0.0255
RRIRGRPPRLPRPRPRPFSFPRP	0.268
RRIRHRPPRLPRPRPRPYRWPRP	-0.00879
RRIRARPPRLPRPRPRPQDAPRP	0.215
RRIRFRPPRLPRPRPRPAGTPRP	-0.0142
RRIRTRPPRLPRPRPRPFSVPRP	0.0234
RRIRTRPPRLPRPRPRPEDPPRP	-0.00217
RRIRERPPRLPRPRPRPPIVPRP	-0.302
RRIRDRPPRLPRPRPRPGMYPRP	-0.00172
RRIRCRPPRLPRPRPRPFENPRP	-0.0274
RRIRARPPRLPRPRPRPFKTPRP	0.0511
RRIRERPPRLPRPRPRPVAAPRP	0.247
RRIRYRPPRLPRPRPRPQPEPRP	0.239
RRIRFRPPRLPRPRPRPPKDPRP	0.248
RRIRQRPPRLPRPRPRPRINPRP	-0.184
RRIRRRPPRLPRPRPRPVLVPRP	0.487

Sequence	shrunken log2 fold change
RRIRARPPRLPRPRPRPVKCPRP	0.03
RRIRQRPPRLPRPRPRPFQGPRP	-0.0134
RRIRNRPPRLPRPRPRPACIPRP	0.0248
RRIRQRPPRLPRPRPRPLALPRP	0.318
RRIRMRPPRLPRPRPRPKGNPRP	0.0272
RRIRVRPPRLPRPRPRPNHKPRP	-0.292
RRIRLRPPRLPRPRPRPAAWPRP	0.32
RRIRERPPRLPRPRPRPVFTPRP	-0.541
RRIRWRPPRLPRPRPRPCRCPRP	-0.0961
RRIRKRPPRLPRPRPRPDICPRP	0.0913
RRIRIRPPRLPRPRPRPYESPRP	-0.0135
RRIRRRPPRLPRPRPRPMFMPRP	-0.192
RRIRRRPPRLPRPRPRPYAMPRP	-0.121
RRIRFRPPRLPRPRPRPGALPRP	0.0277
RRIRCRPPRLPRPRPRPWYAPRP	-0.529
RRIRLRPPRLPRPRPRPRNSPRP	-0.051
RRIRQRPPRLPRPRPRPGAYPRP	-0.506
RRIRARPPRLPRPRPRPYKVPRP	-0.00867
RRIRWRPPRLPRPRPRPNKNPRP	-0.0787
RRIRTRPPRLPRPRPRPMSDPRP	-0.0819
RRIRNRPPRLPRPRPRPYNMPRP	-0.0281
RRIRNRPPRLPRPRPRPLYQPRP	-0.357
RRIRKRPPRLPRPRPRPMHKPRP	0.351
RRIRQRPPRLPRPRPRPHMEPRP	-0.172
RRIRIRPPRLPRPRPRPTQIPRP	0.245
